B1: Protein wntless homolog (Homo sapiens), Q5T9L3 (parent)
chain: MAGAIIENMSTKKLCIVGGILLVFQIIAFLVGGLIAPGPTTAVSYMSVKCVDARKNHHKTKWFVPWGPNHCDKIRDIEEAIPREIEANDIVFSVHIPLPHMEMSPWFQFMLFILQLDIAFKLNNQIRENAEVSMDVSLAYRDDAFAEWTEMAHERVPRKLKCTFTSPKTPEHEGRYYECDVLPFMEIGSVAHKFYLLNIRLPVNEKKKINVGIGEIKDIRLVGIHQNGGFTKVWFAMKTFLTPSIFIIMVWYWRRITMMSRPPVLLEKVIFALGISMTFINIPVEWFSIGFDWTWMLLFGDIRQGIFYAMLLSFWIIFCGEHMMDQHERNHIAGYWKQVGPIAVGSFCLFIFDMCERGVQLTNPFYSIWTTDIGTELAMAFIIVAGICLCLYFLFLCFMVFQVFRNISGKQSSLPAMSKVRRLHYEGLIFRFKFLMLITLACAAMTVIFFIVSQVTEGHWKWGGVTVQVNSAFFTGIYGMWNLYVFALMFLYAPSHKNYGEDQSNGDLGVHSGEELQLTTTITHVDGPTEIYKLTRKEAQE

Variants of: B1
Conditions: with wnt3a_human WNT3A

Question: How did the “effect of a mutation on the interaction” value turn out when MAGAIIENMSTKKLCIVGGILLVFQIIAFLVGGLIAPGPTTAVSYMSVKCVDARKNHHKTKWFVPWGPNHCDKIRDIEEAIPREIEANDIVFSVHIPLPHMEMSPWFQFMLFILQLDIAFKLNNQIRENAEVSMDVSLAYRDDAFAEWTEMAHERVPRKLKCTFTSPKTPEHEGRYYECDVLPFMEIGSVAHKFYLLNIRLPVNEKKKINVGIGEIKDIRLVGIHQNGGFTKVWFAMKTFLTPSIFIIMVWYWRRITMMSRPPVLLEKVIFALGISMTFINIPVEWFSIGFDWTWMLLFGDIRQGIFYAMLLSFWIIFCGEHMMDQHERNHIAGYWKQVGPIAVGSFCLFIFDMCERGVQLTNPFYSIWTTDIGTELAMAFIIVAGICLCLYFLFLCFMVFQVFRNISGKQSSLPAMSKVRRLHYEGLIFRFKFLMLITLACAAMTVIFFIVSQVTEGHWKWGGVTVQVNSAFFTGIYGMWNLYVFALMFLYAPSHKNYGEDQSNGDLGVHSGEELQLTTTITHVDGPTEIYKLTRKEAQA [E541A] was run?
Answer: with no effect

Question: For MAGAIIENMSTKKLCIVGGILLVFQIIAFLVGGLIAPGPTTAVSYMSVKCVDARKNHHKTKWFVPWGPNHCDKIRDIEEAIPREIEANDIVFSVHIPLPHMEMSPWFQFMLFILQLDIAFKLNNQIRENAEVSMDVSLAYRDDAFAEWTEMAHERVPRKLKCTFTSPKTPEHEGRYYECDVLPFMEIGSVAHKFYLLNIRLPVNEKKKINVGIGEIKDIRLVGIHQNGGFTKVWFAMKTFLTPSIFIIMVWYWRRITMMSRPPVLLEKVIFALGISMTFINIPVEWFSIGFDWTWMLLFGDIRQGIFYAMLLSFWIIFCGEHMMDQHERNHIAGYWKQVGPIAVGSFCLFIFDMCERGVQLTNPFYSIWTTDIGTELAMAFIIVAGICLCLYFLFLCFMVFQVFRNISGKQSSLPAMSKVRRLHYEGLIFRFKFLMLITLACAAMTVIFFIVSQVTEGHWKWGGVTVQVNSAFFTGIYGMWNLYVFALMFLYAPSHKNYGEDQSNGDLGVHSGEELQLTTTITHVDGPTEIYKLTAKEAQE [R536A], which “effect of a mutation on the interaction” value is on record?
Answer: with no effect

Question: For MAGAIIENMSTKKLCIVGGILLVFQIIAFLVGGLIAPGPTTAVSYMSVKCVDARKNHHKTKWFVPWGPNHCDKIRDIEEAIPREIEANDIVFSVHIPLPHMEMSPWFQFMLFILQLDIAFKLNNQIRENAEVSMDVSLAYRDDAFAEWTEMAHERVPRKLKCTFTSPKTPEHEGRYYECDVLPFMEIGSVAHKFYLLNIRLPVNEKKKINVGIGEIKDIRLVGIHQNGGFTKVWFAMKTFLTPSIFIIMVWYWRRITMMSRPPVLLEKVIFALGISMTFINIPVEWFSIGFDWTWMLLFGDIRQGIFYAMLLSFWIIFCGEHMMDQHERNHIAGYWKQVGPIAVGSFCLFIFDMCERGVQLTNPFYSIWTTDIGTELAMAFIIVAGICLCLYFLFLCFMVFQVFRNISGKQSSLPAMSKVRRLHYEGLIFRFKFLMLITLACAAMTVIFFIVSQVTEGHWKWGGVTVQVNSAFFTGIYGMWNLYVFALMFLYAPSHKNYGEDQSNGDLGVHSGEELQLTTTITHVDGPTEIYKLTRAEAQE [K537A], which “effect of a mutation on the interaction” value is on record?
Answer: disrupting interaction strength

Question: With MAGAIIENMSTKKLCIVGGILLVFQIIAFLVGGLIAPGPTTAVSYMSVKCVDARKNHHKTKWFVPWGPNHCDKIRDIEEAIPREIEANDIVFSVHIPLPHMEMSPWFQFMLFILQLDIAFKLNNQIRENAEVSMDVSLAYRDDAFAEWTEMAHERVPRKLKCTFTSPKTPEHEGRYYECDVLPFMEIGSVAHKFYLLNIRLPVNEKKKINVGIGEIKDIRLVGIHQNGGFTKVWFAMKTFLTPSIFIIMVWYWRRITMMSRPPVLLEKVIFALGISMTFINIPVEWFSIGFDWTWMLLFGDIRQGIFYAMLLSFWIIFCGEHMMDQHERNHIAGYWKQVGPIAVGSFCLFIFDMCERGVQLTNPFYSIWTTDIGTELAMAFIIVAGICLCLYFLFLCFMVFQVFRNISGKQSSLPAMSKVRRLHYEGLIFRFKFLMLITLACAAMTVIFFIVSQVTEGHWKWGGVTVQVNSAFFTGIYGMWNLYVFALMFLYAPSHKNYGEDQSNGDLGVHSGEELQLTTTITHVDGPTEIYKLTRKEAAE [Q540A] as the variant, how does the “effect of a mutation on the interaction” value read?
Answer: with no effect

Question: MAGAIIENMSTKKLCIVGGILLVFQIIAFLVGGLIAPGPTTAVSYMSVKCVDARKNHHKTKWFVPWGPNHCDKIRDIEEAIPREIEANDIVFSVHIPLPHMEMSPWFQFMLFILQLDIAFKLNNQIRENAEVSMDVSLAYRDDAFAEWTEMAHERVPRKLKCTFTSPKTPEHEGRYYECDVLPFMEIGSVAHKFYLLNIRLPVNEKKKINVGIGEIKDIRLVGIHQNGGFTKVWFAMKTFLTPSIFIIMVWYWRRITMMSRPPVLLEKVIFALGISMTFINIPVEWFSIGFDWTWMLLFGDIRQGIFYAMLLSFWIIFCGEHMMDQHERNHIAGYWKQVGPIAVGSFCLFIFDMCERGVQLTNPFYSIWTTDIGTELAMAFIIVAGICLCLYFLFLCFMVFQVFRNISGKQSSLPAMSKVRRLHYEGLIFRFKFLMLITLACAAMTVIFFIVSQVTEGHWKWGGVTVQVNSAFFTGIYGMWNLYVFALMFLYAPSHKNYGEDQSNGDLGVHSGEELQLTTTITHVDGPTEIYKLTRKAAQE [E538A] was tested. Which “effect of a mutation on the interaction” value did it give?
Answer: with no effect

Variants of: B1
Conditions: with wnt3a_human WNT3A
Remark: another data set of the same source

Question: How did the “effect of a mutation on the interaction” value turn out when MAGAIIENMSTKKLCIVGGILLVFQIIAFLVGGLIAPGPTTAVSYMSVKCVDARKNHHKTKWFVPWGPNHCDKIRDIEEAIPREIEANDIVFSVHIPLPHMEMSPWFQFMLFILQLDIAFKLNNQIRENAEVSMDVSLAYRDDAFAEWTEMAHERVPRKLKCTFTSPKTPEHEGRYYECDVLPFMEIGSVAHKFYLLNIRLPVNEKKKINVGIGEIKDIRLVGIHQNGGFTKVWFAMKTFLTPSIFIIMVWYWRRITMMSRPPVLLEKVIFALGISMTFINIPVEWFSIGFDWTWMLLFGDIRQGIFYAMLLSFWIIFCGEHMMDQHERNHIAGYWKQVGPIAVGSFCLFIFDMCERGVQLTNPFYSIWTTDIGTELAMAFIIVAGICLCLYFLFLCFMVFQVFRNISGKQSSLPAMSKVRRLHAEGLIFRFKFLMLITLACAAMTVIFFIVSQVTEGHWKWGGVTVQVNSAFFTGIYGMWNLYVFALMFLYAPSHKNYGEDQSNGDLGVHSGEELQLTTTITHVDGPTEIYKLTRKEAQE [Y425A] was run?
Answer: with no effect

Source: IntAct's records for PubMed 24768165
